{"source": "patent US6045793", "molecular_target": "[Met-(-1)]rOncG20 (Rana pipiens)", "data": [{"substance": "Placental ribonuclease inhibitor (from UniProt P13489)", "values": [{"measurement": "Fold Difference of IC50 (ng/ml) in rabbit reticulocyte lysate, (+)PRI against (-)PRI", "result": 0.9, "unit": "fold"}, {"measurement": "IC50 (ng/ml) of the RNase for inhibition of protein synthesis in rabbit reticulocyte lysate, (+)PRI", "result": 24, "unit": "ng/mL"}]}]}
